This test concerns the target T1, Bromodomain containing protein 4 (BRD4) (human (endogenous in hSAECs), UniProt O60885 1-1362).
T1 construct: BRD4, endogenous in hSAECs; detected in situ with rabbit BRD4 Ab (Cell Signaling 13440); also called BRD4 CRC; source: endogenous, hSAECs (fixed cells, mock or RSV infected)
Kind of test: proximity ligation; Duolink in situ PLA, mouse anti-IRF1 and rabbit anti-BRD4 Abs, fixed hSAECs, RSV infected (MOI 1, 24 h), with solvent (DMSO) or BRD4i ZL0454 (complex unaffected by BRD4i). Conditions: partners not purified.

B1: interferon regulatory factor 1 (IRF1) (natural protein, human (endogenous in hSAECs), UniProt P10914 1-325, looked up)
chain: MPITRMRMRPWLEMQINSNQIPGLIWINKEEMIFQIPWKHAAKHGWDINKDACLFRSWAIHTGRYKAGEKEPDPKTWKANFRCAMNSLPDIEEVKDQSRNKGSSAVRVYRMLPPLTKNQRKERKSKSSRDAKSKAKRKSCGDSSPDTFSDGLSSSTLPDDHSSYTVPGYMQDLEVEQALTPALSPCAVSSTLPDWHIPVEVVPDSTSDLYNFQVSPMPSTSEATTDEDEEGKLPEDIMKLLEQSEWQPTNVDGKGYLLNEPGVQPTSVYGDFSCKEEPEIDSPGGDIGLSLQRVFTDLKNMDATWLDSLLTPVRLPSIQAIPCAP
notes: IRF1, endogenous in telomerase-immortalized human small airway epithelial cells (hSAECs); detected in situ with mouse IRF1 Ab (R&D MAB4830-SO); source: endogenous, hSAECs (fixed cells, mock or RSV infected)
Turning to B1, the “fold increase of PLA complex, RSV against mock” value was 25 fold.

For the origin of these results see article PMC11004252, “Cooperative interaction of interferon regulatory factor -1 and bromodomain—containing protein 4 on RNA polymerase activation for intrinsic innate immunity” (Frontiers in Immunology, 2024).
